Laboratory results published in US20220227882A1 (TRUSTEES OF TUFTS COLLEGE, published 2022).

Assays:
[1] = molecular target: T1, Recombinant human ADAM8 (rHuADAM8) ectodomain protein (aa 17-497), ACRO Biosystems AD8-H5223 (human, UniProt P78325 17-497); assay: adhesion of α9β1 integrin CHO cells to coated rHuADAM8, antibody 20 µg/ml, vs isotype control IgG; mean ± S.D., n=3
T1 construct: Bought protein made in HEK293 cells; The protein clips off its own prodomain (aa 17-191); also called rhADAM8; immunogen
T1 sequence: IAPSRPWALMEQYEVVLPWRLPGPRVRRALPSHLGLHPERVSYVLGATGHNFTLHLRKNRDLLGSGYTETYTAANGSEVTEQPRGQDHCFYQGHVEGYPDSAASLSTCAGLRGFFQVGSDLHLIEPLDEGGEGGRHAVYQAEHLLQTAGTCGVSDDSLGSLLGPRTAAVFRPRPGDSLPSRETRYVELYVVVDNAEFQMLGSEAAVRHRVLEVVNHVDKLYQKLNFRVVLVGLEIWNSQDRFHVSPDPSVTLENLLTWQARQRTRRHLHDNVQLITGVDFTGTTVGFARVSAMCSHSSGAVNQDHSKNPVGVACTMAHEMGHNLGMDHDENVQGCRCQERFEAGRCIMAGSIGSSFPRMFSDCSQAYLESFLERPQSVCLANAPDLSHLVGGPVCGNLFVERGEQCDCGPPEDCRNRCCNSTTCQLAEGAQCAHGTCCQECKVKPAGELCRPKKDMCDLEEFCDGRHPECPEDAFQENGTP
Description: To mimic this process and evaluate both the presence of an active DI domain on rHuADAM8 and the ability of ADPs to inhibit this activity in vitro, adhesion of Chinese Hamster Ovary (CHO) cells expressing α9β1 integrin vs the negative control αvβ3 integrin was used (Rao et al., J Bone Miner Res, 21(10): 1657-1665, 2006). CHO cells were maintained in DMEM high glucose (Invitrogen) supplemented with 10% FBS, 1% penicillin/streptomycin (Hyclone), L-glutamine (Gibco), non-essential amino acids (Gibco) and 100 μg/ml G418 (Teknova). Adhesion of CHO cells expressing α9β1 integrin or αvβ3 integrin to plates coated with rHuADAM8 (Acro Biosystems, AD8-H5223) was assessed as follows. Briefly, 96-well plates were coated overnight with 1.5 μg of rHuADAM8 per well, blocked with 1% BSA and washed with PBS.
To assess the ability of ADPs to inhibit DI activity, 96-well plates coated with rHuADAM8 as above were pre-treated in duplicate for 2 hours with either PBS, 20 μg/ml of dialyzed or protein A purified ADP, MAB1031 or control isotype-matched IgGs. Unattached cells were washed off and attached cells counted as above.

[2] = molecular target: T1, Recombinant human ADAM8 (rHuADAM8) …; assay: ELISA, coated rHuADAM8
Method: ELISAs were performed to assess the anti-ADAM8 antibodies for binding to rHuADAM8 during preparation and screening stages, using mouse sera, hybridoma supernatants and purified mouse and chimeric ADPs. ELISA plates (96-well) were coated with 1 μg/ml rHuADAM8 (Acro Biosystems, AD8-H5223) overnight at 4° C. Plates were washed three times with phosphate buffered saline (PBS) containing 0.05% Tween 20 (PBST) and blocked with 1% bovine serum albumin (BSA) in PBST at 37° C. for 1 hr. Plates were then exposed to sera, supernatants or purified antibodies for 1 hour at 37° C.
For analysis of antibodies in the serum of mice, pre-bleed and test bleed samples in 6 dilutions ranging from 1:100 to 1:10,000,000 were tested. For analysis of antibodies in hybridoma clone and subclone supernatants, plates were subjected to 50 μl of supernatants. A test bleed sample (1:1000) and hybridoma culture medium were used as positive and negative controls, respectively. For purified antibody characterization, coated plates were incubated with eight increasing concentrations of each specific ADP ranging from 10⁻⁵ to 10³ nM. Normal mouse IgG (1 μg/ml) was used as a negative control to indicate the level of general non-specific binding and a test bleed sample (1:100) was used as a positive control. Samples were washed three times with PBST and incubated for 30 minutes at 37° C. with a secondary goat anti-mouse IgG (Fc specific)-HRP antibody (Sigma A0168, 1:5000). After washing three times with PBST, the signal was developed with addition of 100 μl of the horseradish peroxidase substrate 3,3′,5,5′-Tetramethylbenzidine (TMB) for 10 minutes at room temperature, followed by quenching with 50 μl 1N HCl. Signal was read in a 96-well spectrophotometer at an optical density (OD) of 450 nm.

[3] = molecular target: T2, Full-length human ADAM8 on cells (HEK293-ADAM8 stable or transfected cells); also endogenous ADAM8 of breast … (human, UniProt P78325 17-824); assay: cell-based or functional assay
T2 sequence: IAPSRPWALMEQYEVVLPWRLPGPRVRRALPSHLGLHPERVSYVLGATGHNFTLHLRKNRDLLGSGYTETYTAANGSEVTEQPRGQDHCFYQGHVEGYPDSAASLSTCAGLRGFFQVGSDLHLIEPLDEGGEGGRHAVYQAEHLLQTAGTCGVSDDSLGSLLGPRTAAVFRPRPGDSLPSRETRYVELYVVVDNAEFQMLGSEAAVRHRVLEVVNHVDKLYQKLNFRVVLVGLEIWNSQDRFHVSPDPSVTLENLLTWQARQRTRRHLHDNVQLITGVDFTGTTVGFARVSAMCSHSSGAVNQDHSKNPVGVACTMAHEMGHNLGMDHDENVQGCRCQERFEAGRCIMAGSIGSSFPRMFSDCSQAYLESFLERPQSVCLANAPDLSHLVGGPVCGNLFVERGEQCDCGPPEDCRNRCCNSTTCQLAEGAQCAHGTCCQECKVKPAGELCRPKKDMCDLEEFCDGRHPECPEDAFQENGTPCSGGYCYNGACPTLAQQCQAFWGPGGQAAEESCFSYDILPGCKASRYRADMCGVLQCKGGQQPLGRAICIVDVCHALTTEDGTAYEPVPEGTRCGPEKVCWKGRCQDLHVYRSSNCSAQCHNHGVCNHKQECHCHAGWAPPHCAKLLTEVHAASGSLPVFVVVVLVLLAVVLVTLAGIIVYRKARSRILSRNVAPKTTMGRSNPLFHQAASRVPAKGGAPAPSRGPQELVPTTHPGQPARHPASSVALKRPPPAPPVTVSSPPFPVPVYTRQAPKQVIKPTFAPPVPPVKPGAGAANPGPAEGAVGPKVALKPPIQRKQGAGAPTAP

[4] = molecular target: T1, Recombinant human ADAM8 (rHuADAM8) …; assay: ELISA, coated recombinant ADAM8

B1: ADP2 (antibody, V domains shown)
VH: EVKLVESGGGLVQPGGSLSLSCAASGFSFPDYYMSWVRQPPGKALEWLGFIRDSANGYTTEYIASVKGRFTFSRDNSQSILYLQMNALRAEDSATYYCARYSRYYGMDYWGQGTSVTVSS
VL: SIVMTQTPKILLVSAGDRVTITCKASQTVNYDVAWYQQKPGQSPKPVIYFASNRYTGVPDRFTGSGFGTDFTFTISTVQAEDLAVYFCQQDYSAPWTFGGGTKLEIK
notes: also called mADP2; mouse ADP2
With B1 as the binder, how does the “% inhibition of α9β1 integrin binding to ADAM8” value [1] read?
Its value is 72 % inhibition.

What about the EC50 [2] of the same binder?
The EC50 was 0.029 nM.

And the “% inhibition of CD23 cleavage (MP activity), HEK293 cells co-expressing CD23 and ADAM8, antibody 20 µg/ml” value [3]?
The value was 62.6 % inhibition.

What about the “% inhibition of transendothelial migration of MDA-MB-231 cells through HUVEC, antibody 20 µg/ml” value [3] of the same binder?
Its value is 37.6 % inhibition.

And the “OD 450nm” value [4]?
The value was 2.76 OD450nm.

B2: ADP3 (antibody, IgG1, V domains shown)
VH: EVKLEESGGGLVQPGGSMKLSCAASGFTFSDAWMDWVRQSPEKGLEWVAEIRGKVNNLATYYVESVKGRFTISRDDSKSSVYLQMNSLRAEDTGIYYCLGRYDATYAMDYWGQGTSVTVSS
VL: DVVMTQTPLSLPVSLGDQASISCRSSQSLVHSDGNTYLHWYLQKPGQSPKLLIYKLSNRFSGVPDRFSGSGSGTDFTLKISRVEAEDLGVYFCSQSTHVPWTFGGGTKLEIK
How did the “% inhibition of α9β1 integrin binding to ADAM8” value [1] turn out when B2 was run?
The value was 69.3 % inhibition.

And the EC50 [2]?
Its EC50 is 0.049 nM.

What about the “% inhibition of CD23 cleavage (MP activity), HEK293 cells co-expressing CD23 and ADAM8, antibody 20 µg/ml” value [3] of the same binder?
Its value is 79.9 % inhibition.

What about the “% inhibition of transendothelial migration of MDA-MB-231 cells through HUVEC, antibody 20 µg/ml” value [3] of the same binder?
The value was 44.5 % inhibition.

What about the “OD 450nm” value [4] of the same binder?
The value was 2.31 OD450nm.

B3: ADP13 (antibody, IgG1, V domains shown)
VH: EVQLQQSGPEMVKPGTSVKISCKASGYTFTDYYINWVKQSHGKSLEWIGDISPNIGGATYNPKFKGKAILTVDKSARTAYMELRSLTSEDSAVYCCTRGGSSYPYFYAMDYWGQGTSVTVSS
VL: DIVMSQSPSSLAVSVGEKVTMSCKSSQSLLYSSNQKKYLAWYQQKPGQSPKLLIYWASTRESGVPDRFTGSGSGTDFTLTISSVKAEDLAVYYCQQFYSYPYTFGGGTKLEINR
notes: also called mADP13; mouse ADP13
Which results are given for B3?
% inhibition of α9β1 integrin binding to ADAM8 [1]: 78.5 % inhibition; EC50 [2]: 0.054 nM; % inhibition of CD23 cleavage (MP activity), HEK293 cells co-expressing CD23 and ADAM8, antibody 20 µg/ml [3]: 79.1 % inhibition; % inhibition of transendothelial migration of MDA-MB-231 cells through HUVEC, antibody 20 µg/ml [3]: 54.5 % inhibition; OD 450nm [4]: 2.64 OD450nm
